{"source": "paper PMC5763331", "target": "PROTEOLYSIS1 (PRT1) (Arabidopsis thaliana) (UniProt Q8LBL5)", "sequence (Q8LBL5 whole entry)": "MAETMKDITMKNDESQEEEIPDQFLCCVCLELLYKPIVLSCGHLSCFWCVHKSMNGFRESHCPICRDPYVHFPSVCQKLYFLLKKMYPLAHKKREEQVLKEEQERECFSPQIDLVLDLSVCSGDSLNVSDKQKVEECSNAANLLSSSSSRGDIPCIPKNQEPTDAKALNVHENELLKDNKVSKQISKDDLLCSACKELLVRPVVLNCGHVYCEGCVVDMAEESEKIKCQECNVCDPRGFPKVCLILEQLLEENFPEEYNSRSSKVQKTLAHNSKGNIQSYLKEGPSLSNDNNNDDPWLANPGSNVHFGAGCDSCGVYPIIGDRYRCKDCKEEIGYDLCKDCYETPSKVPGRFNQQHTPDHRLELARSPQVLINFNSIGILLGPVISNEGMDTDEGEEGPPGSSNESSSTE", "data": [{"substance": "E2-conjugating enzyme UBC8 (from UniProt P35131 1-148)", "values": [{"measurement": "Michaelis-Menten constant (K M) of substrate ubiquitination by PRT1 at different E2 concentrations (fluorescence polarization of the F-eK-Flv-NBD substrate, UBC8 up to 2 μM)", "result": 0.08, "unit": "µM"}]}]}
